Assay results reported in US10501734B2, “Compositions and methods of use thereof for making polypeptides with many instances of nonstandard amino acids” (Yale University, priority 2014, dated 2019).
Changes are numbered by the printed parent chain. Names and notes keep the numbering of the source.

B1: pAcFRS.1.t1: pAcFRS variant A167D, R257G, SEQ ID NO: 5 (protein)
chain: MDEFEMIKRNTSEIISEEELREVLKKDEKSALIGFEPSGKIHLGHYLQIKKMIDLQNAGFDIIILLADLHAYLNQKGELDEIRKIGDYNKKVFEAMGLKAKYVYGSEFQLDKDYTLNVYRLALKTTLKRARRSMELIAREDENPKVAEVIYPIMQVNGCHYRGVDVDVGGMEQRKIHMLARELLPKKVVCIHNPVLTGLDGEGKMSSSKGNFIAVDDSPEEIRAKIKKAYCPAGVVEGNPIMEIAKYFLEYPLTIKGPEKFGGDLTVNSYEELESLFKNKELHPMRLKNAVAEELIKILEPIRKRL
B2: pAcFRS.2.t1: pAcFRS variant L65V, A167D, R257G, SEQ ID NO: 8 (protein)
chain: B1 chain with L65V
B3: pAzFRS.2.t1: pAcFRS variant E107T, F108Y, Q109M, R257G, SEQ ID NO: 14 (protein)
chain: B1 chain with E107T, F108Y, Q109M, D167A
B4: pAcFRS: progenitor M. jannaschii based p-acetyl-L-phenylalanine AARS, SEQ ID NO:1 (Young, et al., 2010) (protein, listed as Methanocaldococcus jannaschii)
chain: B1 chain with D167A, G257R
B5: pAzFRS.1.t1: pAcFRS variant D158V, I159M, L162D, A167Y, R257G, SEQ ID NO: 11 (protein)
chain: MDEFEMIKRNTSEIISEEELREVLKKDEKSALIGFEPSGKIHLGHYLQIKKMIDLQNAGFDIIILLADLHAYLNQKGELDEIRKIGDYNKKVFEAMGLKAKYVYGSEFQLDKDYTLNVYRLALKTTLKRARRSMELIAREDENPKVAEVIYPIMQVNVMHYDGVDVYVGGMEQRKIHMLARELLPKKVVCIHNPVLTGLDGEGKMSSSKGNFIAVDDSPEEIRAKIKKAYCPAGVVEGNPIMMEIAKYFLEYPLTIKGPEKFGGDLTVNSYEELESLFKNKELHPMRLKNAVAEELIKILEPIRKRL

Tests used:
[1] = test system: ELP(30TAG)-GFP; assay: ELP expression and purification, yield of purified ELP(30TAG)-GFP; assay type: cell-based, E. coli
Description: Before batch expression, starter cultures (2 mL) of 2×YT media supplemented with 30 μg/mL kanamayacin and 20 μg/mL chloramphenicol were inoculated with transformed cells from a fresh agar plate or from stocks stored at −80° C., and incubated overnight at 34° C. while shaking at 250 rpm. Expression cultures (250 ml flasks containing 50 ml of 2×YT media, antibiotics, 0.2% arabinose and 1 mM of the nsAA) were inoculated with 0.5 ml of the starter culture and incubated at 34° C. for 4 h and then reporter protein expression was induced with 60 μg/mL anhydrotetracyclin.
Cells were harvested 24 h after inoculation by centrifugation at 4,000 g for 15 min at 4° C. The cell pellet was resuspended by vortex in ˜1.5 mL PBS buffer and stored at −80° C. or immediately purified. For purification, resuspended pellets were lysed by ultrasonic disruption (9 cycles of 10 s sonication separated by 40 s intervals). Poly(ethyleneimine) (0.2 mL of 10% solution) was added to each lysed suspension before centrifugation at 15,000 g for 3 min to separate cell debris from the soluble cell lysate.
All ELP constructs were purified by a modified Inverse Transition Cycling (ITC) protocol consisting of multiple “hot” and “cold” spins using sodium citrate to trigger the phase transition. Before purification, the soluble cell lysate was incubated for 1-2 min at ˜65° C. to denature native E. coli proteins. For “hot” spins, the ELP phase transition was triggered by adding sodium citrate to the cell lysate or the product of a previous cycle of ITC at a final concentration of ˜0.5 M. The solutions were then centrifuged at 14,000 g for 3 min and the pellets were resuspended in PBS, followed by a 3-5 min “cold” spin performed without addition of sodium citrate to remove denatured contaminant. Additional rounds of ITC were carried out as needed until sufficient purification was achieved.
Protein concentration was calculated by measuring the OD280 of purified protein stocks according to the following extinction coefficients for ELP(30TAG)-GFP.

[2] = test system: tRNA; assay: Aminoacylation assay (tRNA charging); assay type: biochemical; settings: for Fold change: relative to progenitor pAcFRS
Description: Template plasmid containing tRNA gene was purified with the plasmid maxi kit (Qiagen), and 100 μg of plasmid was digested with BstNI (New England Biolabs). The BstNI digested template DNA was purified by phenol chloroform extraction, followed by ethanol precipitation and resolved in double distilled water. A His-tagged T7 RNA polymerase was purified over column of Ni-NTA resin according to manufacturer's instructions (Qiagen). The transcription reaction [40 mM Tris (pH 8); 4 mM each of UTP, CTP, GTP, and ATP at pH 7.0; 22 mM MgCl2; 2 mM spermidine; 10 mM DTT; 6 μg pyrophosphatase (Roche Applied Science); 60 μg/mL BstNI digested DNA template, approximately 0.2 mg/ml T7 RNA polymerase] was performed in 10 ml reaction volumes for overnight at 37° C. The tRNA was purified on 12% denaturing polyacrylamide gel containing 8 M urea and TBE buffer (90 mM Tris, 90 mM boric acid, 2 mM EDTA). UV shadowing illuminates the pure tRNA band, which is excised and extracted three times with 1M sodium acetate pH 5.3 at 4° C. The tRNA extractions were then ethanol precipitated, dissolved in RNase-free distilled water, pooled, and finally desalted using a Biospin 30 column (BioRad). The ratio of aminoacylated tRNA to total tRNA was determined to monitor reaction progress.
The tRNA was refolded by heating to 100° C. for 5 min and slow cooling to room temperature. At 65° C., MgC12, was added to a final concentration of 10 mM to aid folding. A His-tagged CCA adding enzyme was purified over column of Ni-NTA resin according to manufacturer's instructions (Qiagen). 16 μM folded tRNA in 50 mM Tris (pH 8.0), 20 mM MgCl2, 5 mM DTT and 50 μM NaPPi was incubated at room temperature for 1 hour with approximately 0.2 mg/ml CCA-adding enzyme and 1.6 μCi/μl of [α-32P]-labeled ATP (PerkinElmer). The sample was phenol/chloroform extracted and then passed over a Bio-spin 30 column (Bio-Rad) to remove excess ATP.
A 20 μl aminoacylation reaction contained the following components: 50 mM HEPES-KOH (pH 7.2), 25 mM KCl, 10 mM MgCl2, 5 mM DTT, 10 mM ATP, 25 μg/ml pyrophosphatase (Roche Applied Science), 2 mM amino acids. All plateau tRNA aminoacylation levels were determined at 37° C. according to the reactions conditions described above with 500 nM enzyme, 5 μM unlabeled tRNA plus 100 nM 32P-labeled tRNA. Time points were taken at 5 minutes, 20 minutes and 60 minutes by removing 2 μl aliquots from the reaction and immediately quenching the reaction into an ice-cold 3 μl quench solution [0.66 μg/μl nuclease P1 (Sigma) in 100 mM sodium citrate (pH 5.0)]. For each reaction, 2 μl of blank reaction mixture containing no enzymes was added to the quench solution as the start time point. The nuclease P1 mixture was then incubated at room temperature for 30 min and 1 μl aliquots were spotted on PEI-cellulose plates (Merck) and developed in running buffer containing 5% acetic acid and 100 mM ammonium acetate. Radioactive spots for AMP and AA-AMP (representing free tRNA and aminoacyl-tRNA, respectively) were separated and then visualized and quantified by phosphor imaging by a Molecular Dynamics Storm 860 phosphorimager (Amersham Biosciences). The ratio of aminoacylated tRNA to total tRNA was determined to monitor reaction progress.

Row | Molecule | Yield of purified ELP(30TAG)-GFP ([1]; nsAA pAcF, GRO) | Km ([2]; nsAA pAcF) | kcat ([2]; nsAA pAcF) | Fold change ([2]; nsAA pAcF) | Km ([2]; nsAA pAzF) | kcat ([2]; nsAA pAzF) | Fold change ([2]; nsAA pAzF) | Yield of purified ELP(30TAG)-GFP ([1]; nsAA 4CF3F, GRO) | Yield of purified ELP(30TAG)-GFP ([1]; nsAA BuY, GRO) | decrease in tRNA charging for pAzF compared with pAcF ([2]; in vitro biochemical analysis) | Yield of purified ELP(30TAG)-GFP ([1]; nsAA 4ClF, GRO) | Yield of purified ELP(30TAG)-GFP ([1]; nsAA pAzF, GRO) | Yield of purified ELP(30TAG)-GFP ([1]; nsAA pAcF, Non-recoded E. coli)
1 | B1 | 52.6 ± 6.3 mg/L | 16 ± 4 µM | 1.12 ± 0.14 ×10^−3 s^−1 | 9.58 | 16 ± 1 µM | 0.63 ± 0.12 ×10^−3 s^−1 | 6.33 | – | – | – | – | – | –
2 | B2 | – | 18 ± 2 µM | 0.54 ± 0.15 ×10^−3 s^−1 | 4.10 | 24 ± 7 µM | 0.22 ± 0.05 ×10^−3 s^−1 | 1.47 | 53 ± 5.4 mg/L | 64.5 ± 9.7 mg/L | 2.8 fold | – | – | –
3 | B3 | 39.05 ± 3.4 mg/L | – | – | – | 14 ± 3 µM | 0.71 ± 0.13 ×10^−3 s^−1 | 8.17 | – | – | – | 48.2 ± 11.2 mg/L | 41.9 ± 6^ mg/L | –
4 | B4 | 10.5 ± 5.5 mg/L | 34 ± 6 µM | 0.25 ± 0.04 ×10^−3 s^−1 | 1 | 34 ± 7 µM | 0.23 ± 0.03 ×10^−3 s^−1 | 1 | – | – | – | – | – | 3.04 ± 1.4 mg/L
5 | B5 | – | – | – | – | 24 ± 3 µM | 0.49 ± 0.17 ×10^−3 s^−1 | 3.29 | – | – | – | – | – | –
